Test results taken from PMC9007600.

Target: tralokinumab half molecule (human)

B1: tralokinumab half molecule (antibody, V domains shown)
VH: QVQLVQSGAEVKKPGASVKVSCKASGYTFTNYGLSWVRQAPGQGLEWMGWISANNGDTNYGQEFQGRVTMTTDTSTSTAYMELRSLRSDDTAVYYCARDSSSSWARWFFDLWGRGTLVTVSS
VL: SYVLTQPPSVSVAPGKTARITCGGNIIGSKLVHWYQQKPGQAPVLVIYDDGDRPSGIPERFSGSNSGNTATLTISRVEAGDEADYYCQVWDTGSDPVVFGGGTKLTVL
With B1 the dissociation half-life was 16.8 h.
